Measurements taken from the supplement of paper PMC10567573.

B1: HDAC6 (parent)
chain: KMKTRELHRESSNFDSIYICPSTF

Variants of: B1
Assay: protein stability index of a GFP-peptide fusion (GPS, HEK-293T) (PSI 1-6); higher = more stable
Conditions: c terminus: a fixed tail appended
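Also: lentivirally expressed fusions sorted by FACS into six bins by GFP to DsRed ratio, PSI derived from sequencing read proportions per bin multiplied by bin number.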

Protein stability index: each site, then its substitutions
T23: S 2.59; E 1.96; A 2.16; L 2.21; P 2.61
N13: Y 1.64; R 3.21; C 1.79; A 1.93
K3: I 1.68; F 2.1; N 2.32; P 2.15; C 2.43; R 2.42
F14: R 1.7; K 3.03; P 2.99; G 4.12
F24: V 2.82; H 2.76; S 2.96; W 2.65; G 3.15; K 3.36; E 3.87; Y 2.88; D 3.99
H8: C 1.6; F 1.69; D 2.22; T 2.21; V 2.6; S 2.92; M 1.97; I 1.38; L 1.97; Y 1.56
K1: S 2.3; H 1.9; F 1.92; N 2.12; W 1.98; V 2.33; Q 2.23
C20: R 2.61; V 2.24; Y 2.07; G 2.22; M 2.17; A 2.86; Q 3.13; N 3.23
R5: D 2.62; C 1.91; W 1.72; K 2.38; E 2.73; T 2.15
S16: D 2.68; Q 1.91; A 1.88; H 1.99; N 1.31; C 1.76; Y 1.85; R 2.83; M 1.66
L7: I 2; E 3.2; F 2.53; Q 2.72; K 3.11; W 2.62; S 3.05
R9: P 2.45; C 2.39; Y 2.09; G 2.38; L 2.07; H 2.15; F 1.39; T 2.39
I19: H 3.1; F 2.81; M 1.44; G 2.91; A 2.74; C 2.34; N 3.22; Y 2.16; P 3.35; Q 3.2
M2: A 3.17; D 2.75; P 2.96; W 2.21; N 2.37; E 2.6
Y18: M 2.4; Q 2.96; W 2.38; K 2.44; D 3.8; A 4.07; P 3.33
S11: Q 2.36; E 2.2; Y 1.98; K 2.72; V 2.3; W 2.85; G 1.96; I 2.71; N 2.3
D15: E 1.93; W 2.21; Q 1.96; N 2.01; A 2; G 1.69; C 2.82
E10: W 1.22; Q 1.78; M 2.62; F 2.26; V 2.04; S 1.79; T 2.83; K 2.71; G 3.45; H 1.87
I17: D 3.75; Q 2.48; C 2.49; S 2.45; M 2.57; H 3.15; A 2.96
E6: C 1.31; D 2.85; W 1.76; N 2.32
T4: S 2.94; D 2.89; V 2.08; E 1.99; M 1.65; W 2.19
P21: S 1.74; Q 1.94; A 1.77
S22: Q 1.78; N 2.13; A 2.14; I 1.65; W 3.05; P 2.65; D 2.76; G 2.06
S12: K 2.74; L 1.83; M 1.55; G 3.05; V 2.38; P 2.12; C 1.89
